Measured values taken from patent publication US10494417B2, “Peptide inhibitors of BCR-ABL oligomerization” (University of Utah Research Foundation, priority 2014, dated 2019).
Entries after “also recorded” stand apart in the source; their conditions may differ.

What was measured:
Ba/F3-P210 cells = test: Viability of transfected Ba/F3-p210 cells (trypan blue exclusion); type: cell-based, mouse; details: 72 h following transfection, vs mCherry control, n=1
Procedure: Two days following cell passaging, 3.0×10^6 cells were collected by centrifugation at 750×g for 10 min for each transfection group. Following collection, 4 μg DNA was transfected into cells according to the Cell Line Nucleofector® Kit V protocol (program X-001) using the Amaxa Nuelcofector II. Following nucleofection, the DNA/cell mixture was added to 500 μL plain RPMI and incubated for 20 min. After incubation, the 500 μL cell/DNA/RPMI mixture was added to complete RPMI 1640 media and allowed to incubate at 37° C. for 72 h until analysis.
Forty-eight or 72 h following transfection, 100 μL of treated K562 or Ba/F3-p210 cells was mixed with 100 μL trypan blue solution (Life Technologies). The numbers of viable cells (those impermeable to the trypan blue dye) from four different quadrants in an INCYTO™ C-CHIP™ Neubauer hemacytometer (VWR International, Radnor, Pa., USA) were counted using a standard light microscope. Quadrant counts were then averaged to obtain the number of viable cells per mL. For experiments using the Helix2mut3 construct, counts were performed on one aliquot per transfection (n=3 in replicate). In experiments involving the CappedHelix2mut3 construct, counts were performed three times using separate 100 pt aliquots from one transfection (n=1 in triplicate).

[1] = test system: Ba/F3 cells expressing BCR-ABL1E255V; test: Colony forming assay of Ba/F3 BCR-ABL1 E255V cells; type: cell-based, mouse; details: for colony formation, in words: CCmut3 gene delivery (transfection; b502 lentiviral infection) vs EV; for reduction in CFCs / colony forming ability: CCmut3 vs EV
Procedure: (§1) Following selection of transfected cells by cell sorting, viable cells were enumerated and seeded into methylcellulose as described previously (Dixon, A. S., et al. (2011) J. Biol. Chem. 286, 27751-27760). Briefly, mCherry-positive Ba/F3 cells were re-suspended in IMDM with 2% FBS (Stem Cell Technologies) at a concentration of 10,000 cells/mL. Three hundred microliters of this dilution was added to 3 mL of Methocult media (M3434—Ba/F3 p210 wild-type and mutant lines or M3234—Ba/F3 parental, Stem Cell Technologies). Approximately 1100 cells, or 1.2 mL, were seeded per dish in duplicate for each transfection. Colonies were counted 7 days later in an area of […] per dish.
(§2) Following selection of transfected cells by cell sorting, methylcellulose colony assays were performed by plating in 0.9% methylcellulose (Stem Cell Technologies; M3234 for Ba/F3 BCR-ABL1 native and mutant lines; M3434 for Ba/F3 parental cells; H4230 for CML patient samples). mCherry-positive Ba/F3 cells (1.1×10^3 cells/plate) or GFP-positive primary CML CD34+ cells (1×10^3 cells/plate) were seeded per dish in duplicate. In the case of CML patient samples, cells were plated in the presence of 1× StemSpan CC100 cytokine cocktail (StemCell Technologies). All cells were plated with or without the indicated TKI in three or more independent experiments. Plates were incubated at 37° C. in a 5% CO2 humidified incubator. Colonies were counted 7-14 days later in an area of 50 μm2 per dish using an inverted microscope.

K562 cells [2] = test: Colony forming assay of protein-treated K562 cells; type: cell-based, human; details: proteins 30 μM, imatinib 1.0 μM; colonies counted after 7 days
Procedure: This experiment was carried out as before with the modifications noted below. […] 1×10^3 cells (in 1.1 mL) were seeded in a 6-well plate (CellStar), in duplicate for each treatment. 7 days after seeding cells, colonies were counted in a […] area per well. Independent treatments were tested 3 times in duplicate (n=3). All reagents for the CFA were purchased from Stem Cell Technologies, Vancouver, BC, Canada.

[3] = test system: Ba/F3 cells expressing BCR-ABL1E255V/T315I; test: Colony forming assay of Ba/F3 BCR-ABL1 E255V/T315I cells; type: cell-based, mouse; details: for colony formation, in words: CCmut3 gene delivery (transfection; b502 lentiviral infection) vs EV
Procedure: as §1, §2

K562 cells [4] = test: Cell proliferation (trypan blue) of protein-treated K562 cells; type: cell-based, human; details: proteins 30 μM or imatinib
Procedure: Independent treatments were tested three times (n=3).

K562 cells [5] = test: Colony forming assay of transfected K562 cells; type: cell-based, human; details: for colony formation (transformative ability), in words: construct delivered as a gene by transfection, vs EGFP (and WT) control
Procedure: Both EGFP and EGFP-CC^mut3 were transfected into separate groups of cells on day 0. One day following transfection, 1.0×10^6 cells per treatment group were collected and re-suspended in 1.0 mL of PBS. Through serial dilutions, 1.0×10^3 cells in IMDM (Isocove's modified Dulbecco's media) with 2% FBS were seeded into methylcellulose medium in the absence of cytokines (MethoCult H4230 for K562 cells and MethoCult M3234 for p210 and p210-T315I cells) or in the presence of cytokines (MethoCult GF M3434 for parental Ba/F3 cells). Ponatinib was then added in the correct molar amounts (0, 100 pM, 1 nM, or 10 nM) to the methylcellulose medium. Colonies formed were counted after 7 days of incubation. All reagents were purchased from Stem Cell Technologies, Vancouver, BC, Canada. Assay was run three separate times (n=3) in duplicate.
Briefly, K562 or Ba/F3-p210 cells were transfected according to the protocol above. One day following transfection, 1.0×10^6 cells per transfection group were collected and re-suspended in sterile PBS. […] Finally, 1.1 mL of cell/methylcellulose mixture was seeded in duplicate and allowed to grow at 37° C. and 5% CO2 for 7 days. Colony formation was assessed by counting colonies in two 200 μm2 areas on the plate. Experiments were performed once in duplicate (n=1 in duplicate). All kit reagents and media were purchased from Stem Cell Technologies (Vancouver, BC, Canada).

B1: CCmut3: modified Bcr-Abl coiled-coil domain (residues 1-72) with mutations C38A, K39E, S41R, L45D, E48R, Q60E (protein)
chain: MVDPVGFAEAWKAQFPDSEPPRMELRSVGDIEQELERAEARIRRDEQRVNQERFRMIYLETLLAKEKKSYDR
- proliferation/viability of Ba/F3-p210 cells (Ba/F3-P210 cells): replicated to a similar extent
- colony formation, in words [1]: significantly fewer colonies per unit area
- colony formation, in words ([1]; listed as CC^mut3): Inhibition in colony formation
- reduction in CFCs / colony forming ability [1]: > 10 fold
- reduction in CFCs / colony forming ability ([1]; listed as CC^mut3): more than 10 fold
- colony forming (transformative ability) (K562 cells [2]): ineffective at reducing cell proliferation and colony forming compared to untreated cells
- colony formation, in words [3]: again reduced
- colony formation, in words ([3]; listed as CC^mut3): reduced; also recorded: Inhibition in colony formation
- reduction of CFCs / colony forming ability compared to EV ([3]; CCmut3 vs EV): approximately 50%
- cell proliferation (K562 cells [4]): ineffective at reducing cell proliferation and colony forming compared to untreated cells
- colony formation, of EGFP control (K562 cells [5]; 7 days after seeding, normalized to EGFP control, n=1 in duplicate): approximately 20%
- decrease in the amount of colonies formed compared to EGFP (K562 cells [5]; CC^mut3 alone, no ponatinib, 7 days): 3 fold
- colony formation (transformative ability), in words (K562 cells [5]): showed inhibitory activity
- colony formation (transformative ability), in words (K562 cells [5]; listed as CC^mut3): inhibits colony formation; also recorded: significantly greater inhibition
